Patent US11505783B2, “Differentiation of human embryonic stem cells” (Janssen Biotech, Inc., priority 2007, dated 2022)

Test system: human embryonic stem cell line H1
Test: FACS analysis of insulin and synaptophysin in stage 6 cultures, Chordin instead of Noggin (Example 15)
Type: cell-based
Details: 50-100 ng/ml at stages 3-4 instead of Noggin, compared with Noggin
Description: Cells were dissociated into single cells from monolayer cultures using TrypLE Express (Invitrogen, Carlsbad, Calif.) and washed in cold PBS. For fixation, cells were resuspended in 200-300 μl Cytofix/Cytoperm Buffer (BD 554722, BD, Ca) and incubated for 30 min at 4° C. Cells were washed two times in 1 ml Perm/Wash Buffer Solution (BD 554723) and resuspended in 100 μl staining/blocking solution containing 2% normal goat serum in Perm/Wash buffer. For flow cytometric analysis, cells were stained with the following primary antibodies: Anti-Insulin (Rabbit mAb, Cell Signaling No. C27C9; 1:100 dilution), Anti-Glucagon (Mouse Mab, Sigma No. G2654, 1:100); Anti-Synaptophysin (Rabbit Polyclonal antibody, DakoCytomation No A0010, 1:50); Cells were incubated for 30 min at 4° C. followed by two washes in Perm/Wash buffer and further 30 min incubation in appropriate secondary antibodies as follows: Goat anti-Rabbit Alexa 647 (Invitrogen No. A21246) or Goat anti-Mouse 647 (Invitrogen No. A21235); Goat anti-Rabbit R-PE (BioSource No. ALI4407). All secondary antibodies were used at 1:200 dilution. Cells were washed at least once in Perm/Wash buffer and analyzed using BD FACSArray. A least 10,000 events were acquired for analysis. Controls included undifferentiated H1 cells and b-TC (ATCC, VA) cell line. FIGS. 20A-20C show the percentage insulin positive and synapthophysin+ cells in stage 6 cultures. […]

B1: Chordin: known inhibitor of BMP signaling (R&D Systems) (protein, UniProt Q9H2X0 27-955, looked up)
Chordin: AGPEPPVLPIRSEKEPLPVRGAAGCTFGGKVYALDETWHPDLGEPFGVMRCVLCACEAPQWGRRTRGPGRVSCKNIKPECPTPACGQPRQLPGHCCQTCPQERSSSERQPSGLSFEYPRDPEHRSYSDRGEPGAEERARGDGHTDFVALLTGPRSQAVARARVSLLRSSLRFSISYRRLDRPTRIRFSDSNGSVLFEHPAAPTQDGLVCGVWRAVPRLSLRLLRAEQLHVALVTLTHPSGEVWGPLIRHRALAAETFSAILTLEGPPQQGVGGITLLTLSDTEDSLHFLLLFRGLLEPRSGGLTQVPLRLQILHQGQLLRELQANVSAQEPGFAEVLPNLTVQEMDWLVLGELQMALEWAGRPGLRISGHIAARKSCDVLQSVLCGADALIPVQTGAAGSASLTLLGNGSLIYQVQVVGTSSEVVAMTLETKPQRRDQRTVLCHMAGLQPGGHTAVGICPGLGARGAHMLLQNELFLNVGTKDFPDGELRGHVAALPYCGHSARHDTLPVPLAGALVLPPVKSQAAGHAWLSLDTHCHLHYEVLLAGLGGSEQGTVTAHLLGPPGTPGPRRLLKGFYGSEAQGVVKDLEPELLRHLAKGMASLMITTKGSPRGELRGQVHIANQCEVGGLRLEAAGAEGVRALGAPDTASAAPPVVPGLPALAPAKPGGPGRPRDPNTCFFEGQQRPHGARWAPNYDPLCSLCTCQRRTVICDPVVCPPPSCPHPVQAPDQCCPVCPEKQDVRDLPGLPRSRDPGEGCYFDGDRSWRAAGTRWHPVVPPFGLIKCAVCTCKGGTGEVHCEKVQCPRLACAQPVRVNPTDCCKQCPVGSGAHPQLGDPMQADGPRGCRFAGQWFPESQSWHPSVPPFGEMSCITCRCGAGVPHCERDDCSLPLSCGSGKESRCCSRCTAHRRPAPETRTDPELEKEAEGS
How did the “expression of insulin and synaptophysin by FACS” value turn out when B1 was run?
The value was “very similar expression”.
